Laboratory results published in paper PMC3458543.

Target: T1, His-Six1-HD (Mus musculus, UniProt Q62231 110-201)
T1 sequence: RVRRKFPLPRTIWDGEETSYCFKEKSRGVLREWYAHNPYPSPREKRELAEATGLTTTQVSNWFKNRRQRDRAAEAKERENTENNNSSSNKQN
Experiment: EMSA

B1: Myog_mut34 (dsDNA)
DNA 1: GTTAGAGGGGGTATCAGGTTTGTGTGGCGTTGGC
DNA 2: GCCAACGCCACACAAACCTGATACCCCCTCTAAC
  binding result: binds
